Test results reported in PMC6318328, “Structural insights into trans-histone regulation of H3K4 methylation by unique histone H4 binding of MLL3/4” (Nature Communications, 2019).

T1: MLL3_(PHD5-6)_(1008–1144) (human, UniProt Q8NEZ4 1008-1144)
T1 construct: MLL3 (KMT2C), human, residues 1008–1144; also called PHD5–6 of MLL3; source: E. coli BL21 (DE3) Codon plus RIL, purified (Ni-NTA, thrombin, HiTrap Q, Superdex75); not shown: GST, N-terminal, cleaved; His tag, N-terminal, cleaved
T1 sequence (looked up): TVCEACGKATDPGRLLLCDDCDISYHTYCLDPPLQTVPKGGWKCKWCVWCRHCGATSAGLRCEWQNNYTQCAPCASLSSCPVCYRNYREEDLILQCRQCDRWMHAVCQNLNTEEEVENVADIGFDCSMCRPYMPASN

T2: MLL3_(ePHD6)_(1075–1144) (human, UniProt Q8NEZ4 1075-1144)
T2 construct: MLL3 (KMT2C), human, residues 1075–1144; also called MLL3_ePHD6, residues 1075–1144; source: E. coli BL21 (DE3) Codon plus RIL, purified (Ni-NTA, thrombin, HiTrap Q, Superdex75); not shown: GST, N-terminal, cleaved; His tag, N-terminal, cleaved
T2 sequence (looked up): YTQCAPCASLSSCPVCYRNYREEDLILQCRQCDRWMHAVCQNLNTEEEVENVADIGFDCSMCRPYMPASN

T3: MLL3_(ePHD6)_(1055–1144) (human, UniProt Q8NEZ4 1055-1144)
T3 construct: MLL3 (KMT2C), human, residues 1055–1144: the zinc finger before PHD6 and the sixth PHD domain; Monomer in solution by gel filtration; the dimer in the crystal is put down to crystal packing; also called extended PHD6 domain of MLL3; source: E. coli BL21 (DE3) Codon plus RIL, purified (Ni-NTA, thrombin, HiTrap Q, Superdex75); not shown: GST, N-terminal, cleaved; His tag, N-terminal, cleaved
T3 sequence (looked up): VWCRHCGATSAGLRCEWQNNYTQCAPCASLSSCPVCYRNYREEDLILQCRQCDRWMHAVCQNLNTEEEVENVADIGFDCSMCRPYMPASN

B1: MLL4_(ePHD6)_(1475–1564) (domain or fragment, human, UniProt O14686 1475-1564, looked up)
chain: VSCMQCGAASPGFHCEWQNSYTHCGPCASLVTCPICHAPYVEEDLLIQCRHCERWMHAGCESLFTEDDVEQAADEGFDCVSCQPYVVKPV
notes: MLL4 (KMT2D, ALR), human, residues 1475–1564: the zinc finger before PHD6 and the sixth PHD domain; also called extended PHD6 domain of MLL4; source: E. coli BL21 (DE3) Codon plus RIL, purified (Ni-NTA, thrombin, HiTrap Q, Superdex75); not shown: GST, N-terminal, cleaved; His tag, N-terminal, cleaved
B2: MLL4_(PHD6)_(1505–1564) (domain or fragment, human, UniProt O14686 1505-1564, looked up)
chain: VTCPICHAPYVEEDLLIQCRHCERWMHAGCESLFTEDDVEQAADEGFDCVSCQPYVVKPV
notes: MLL4 (KMT2D), human, residues 1505–1564 (sixth PHD domain alone); also called PHD6 domain of MLL4; source: E. coli BL21 (DE3) Codon plus RIL, purified (Ni-NTA, thrombin, HiTrap Q, Superdex75); not shown: GST, N-terminal, cleaved; His tag, N-terminal, cleaved
B3: histone H4 peptide H4_(11–21) (peptide, UniProt P62805 12-22, looked up)
peptide: GKGGAKRHRKV
notes: histone H4, residues 11–21; also called H4H18 peptide; source: synthetic peptide (Peptide 2.0 Inc.)

Key:
[1] = molecular target: the molecule itself; assay: SEC; gel-filtration profiles of the purified domains (Supplementary Fig. 3)
[2] = molecular target: T1, MLL3_(PHD5-6)_(1008–1144); assay: ITC; peptide (1–2 mM) in the syringe injected into protein (50–100 μM) in the cell; 25 °C; 20 mM Tris pH 7.5, 150 mM NaCl; single-site binding model; settings: both partners purified
MLL4_(ePHD6)_(1495–1564) = molecular target: T4, MLL4_(ePHD6)_(1495–1564) (human, UniProt O14686 1495-1564); assay: as above; settings: both partners purified
T4 construct: MLL4 (KMT2D), human, residues 1495–1564; also called MLL4_ePHD6, residues 1495–1564; source: E. coli BL21 (DE3) Codon plus RIL, purified (Ni-NTA, thrombin, HiTrap Q, Superdex75); not shown: GST, N-terminal, cleaved; His tag, N-terminal, cleaved

MLL3_(ePHD6)_(1075–1144) = molecular target: T2, MLL3_(ePHD6)_(1075–1144); assay: as above; settings: both partners purified
MLL4_(ePHD6)_(1475–1564) = molecular target: B1; assay: as above; settings: both partners purified
MLL3_(ePHD6)_(1055–1144) = molecular target: T3, MLL3_(ePHD6)_(1055–1144); assay: as above; settings: both partners purified

Binder	stoichiometry N [1]	Kd [2] [µM]	Kd (MLL4_(ePHD6)_(1495–1564)) [µM]	Kd (MLL3_(ePHD6)_(1075–1144)) [µM]	Kd (MLL4_(ePHD6)_(1475–1564)) [µM]	Kd (MLL3_(ePHD6)_(1055–1144)) [µM]
B1	2	–	–	–	–	–
B2	2	–	–	–	–	–
B3	–	83	48	31	52	35
